# Literature values as cited in US5780279A, “Method of selection of proteolytic cleavage sites by directed evolution and phagemid display” (Genentech, Inc., priority 1995, dated 1998).
# Where no end group is shown, it is not given here.
# Target: A64SAL subtilisin (Bacillus amyloliquefaciens, UniProt P00782, E263S/G276A/H171A/S131C/Y324L)
# Settings: Carter et al (1989)
# Sequence of A64SAL subtilisin (P00782 108-382 S131C/H171A/E263S/G276A/Y324L): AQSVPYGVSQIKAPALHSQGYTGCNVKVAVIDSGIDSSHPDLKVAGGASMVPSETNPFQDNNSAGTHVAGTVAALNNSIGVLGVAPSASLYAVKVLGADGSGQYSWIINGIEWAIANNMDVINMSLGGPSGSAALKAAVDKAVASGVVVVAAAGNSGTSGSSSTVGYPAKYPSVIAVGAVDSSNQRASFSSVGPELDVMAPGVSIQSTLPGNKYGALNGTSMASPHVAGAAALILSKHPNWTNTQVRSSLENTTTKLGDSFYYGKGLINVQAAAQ
substance,measurement,value
AAHYTRQ,substrate quality for A64SAL subtilisin,good substrate
